These results are taken from publication PMC10960022, “An ARF gene mutation creates flint kernel architecture in dent maize”.

The target in data set [1] is T1, ARFTF17 (Zea mays (B73?)) (UniProt D9HNU4).
T1 sequence: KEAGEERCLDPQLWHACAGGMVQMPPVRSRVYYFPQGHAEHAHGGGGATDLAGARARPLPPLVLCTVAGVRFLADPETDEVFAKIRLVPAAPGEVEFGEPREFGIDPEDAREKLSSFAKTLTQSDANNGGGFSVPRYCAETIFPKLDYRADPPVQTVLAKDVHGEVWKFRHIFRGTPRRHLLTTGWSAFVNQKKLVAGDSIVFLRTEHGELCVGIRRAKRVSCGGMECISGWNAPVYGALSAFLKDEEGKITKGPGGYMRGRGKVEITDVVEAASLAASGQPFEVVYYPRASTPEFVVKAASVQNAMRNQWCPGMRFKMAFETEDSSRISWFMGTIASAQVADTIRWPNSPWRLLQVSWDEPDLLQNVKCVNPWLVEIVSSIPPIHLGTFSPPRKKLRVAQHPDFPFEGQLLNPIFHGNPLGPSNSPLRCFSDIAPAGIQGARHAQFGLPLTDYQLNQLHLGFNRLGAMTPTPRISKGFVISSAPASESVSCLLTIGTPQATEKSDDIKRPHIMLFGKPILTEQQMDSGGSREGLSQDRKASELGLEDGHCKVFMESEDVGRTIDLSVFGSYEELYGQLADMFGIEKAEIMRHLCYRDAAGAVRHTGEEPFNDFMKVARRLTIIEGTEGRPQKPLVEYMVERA
The data set is described as follows: EMSA. The conditions noted are these: 20 mM Tris-HCl pH 7.9, 40 mM KCl, 2 mM MgCl2, 0.2 mM DTT, 5% glycerol, 0.04 mg/mL BSA, 1 ug salmon sperm DNA in 20 uL, room temperature 30 min; 0.05 pmol …. A general note: A gel shift assay detects complexes by their altered migration in electrophoresis.

The target in the next data set is T2, ARFTF17 (Zea mays, UniProt D9HNU4 2-644).
T2 sequence: T1 sequence
In words: EMSA; 20 mM Tris-HCl pH 7.9, 40 mM KCl, 2 mM MgCl2, 0.2 mM DTT, 5% glycerol, 0.04 mg/mL BSA, 1 ug salmon sperm DNA in 20 uL, room temperature 30 min; 0.05 pmol probe, 100 ng protein; native 4% PAGE at 4 C. The conditions noted are these: protein: recombinant; tags: His (pET30a); chain copies: 2; blunt.

With “AATGCACAATCAAATAAATACTCAACATGATGCATATTTCTATTTATATATTTTTATAGTAATTGTTTAATCCTTTTGGTTAAATAACATGCTTCGAAATATGCCATACAACAATTTTCAGTTTTGAAGAAAT (double strand) [PIN1-P]”, in data set [1], the binding entry is “no binding”.

B1: P3(2x) (dsDNA)
DNA 1: AAGGGAGACAACTTGTCTCCCAAAGGGAGACAACTTGTCTCCCAAAGGGAGACAACTTGTCTCCCA
DNA 2: TGGGAGACAAGTTGTCTCCCTTTGGGAGACAAGTTGTCTCCCTTTGGGAGACAAGTTGTCTCCCTT
As to B1, the binding result with ARFTF17 is reported as “no binding”.
